T1: UbP_C F195A (human, UniProt Q8WUN7 129-234, F195A)
T1 sequence: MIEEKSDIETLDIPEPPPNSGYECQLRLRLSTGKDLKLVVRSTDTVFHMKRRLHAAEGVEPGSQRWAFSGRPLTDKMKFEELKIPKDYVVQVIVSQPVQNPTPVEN

T2: UbP_C Q219A/I221A (human, UniProt Q8WUN7 129-234, Q219A | I221A)
T2 sequence: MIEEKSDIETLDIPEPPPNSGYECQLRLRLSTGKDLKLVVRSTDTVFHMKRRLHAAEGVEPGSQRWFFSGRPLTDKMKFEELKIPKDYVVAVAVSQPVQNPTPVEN

B1: USP5_UBA1 (first UBA domain of USP5, residues 631-692) (domain or fragment)
chain: MLDESVIIQLVEMGFPMDACRKAVYYTGNSGAEAAMNWVMSHMDDPDFANPLILPGSSGPGS

Legend:
Assay in all cases: NMR
[1] = molecular target: B1
UbP_C F195A = molecular target: T1, UbP_C F195A
UbP_C Q219A/I221A = molecular target: T2, UbP_C Q219A/I221A

Row | Kd [1] [µM] | Kd (UbP_C F195A) [µM] | Kd (UbP_C Q219A/I221A) [µM] | Binder
1 | 800 | – | – | UbP_C (C-terminal part of DC-UbP, residues 129-234), His-tagged (domain or fragment) MIEEKSDIETLDIPEPPPNSGYECQLRLRLSTGKDLKLVVRSTDTVFHMKRRLHAAEGVEPGSQRWFFSGRPLTDKMKFEELKIPKDYVVQVIVSQPVQNPTPVEN
2 | – | > 3000 | 770 | B1

From paper PMC4160250 (2014)
